Measured values as given in PMC8808565 (iScience, 2009).

Target: SARS-CoV-2 (2019-nCoV) Spike RBD-His Recombinant Protein, Biotinylated (SARS-CoV-2, UniProt P0DTC2, biotin (biotinylated; site not stated))
Assay: SPR

For GIGDPVTCLKSGAICHPVFCPRRYKQIGTCGLPGTKCCKKP [Human beta defensin 2 (hBD-2), recombinant], the Kd was 1800 ± 1100 nM.
